Among the targets are HLA-B*46:01; HLA-A*02:16; HLA-A*68:02; HLA-B*51:01; HLA-B*18:01; HLA-A*02:12; HLA-A*02:19; HLA-B*27:03; HLA-A*24:03.
Holding throughout (experiment): IEDB peptide-MHC binding, purified MHC/direct/fluorescence; filed as Kd, often an IC50 or EC50 that approximates it; ≥ and ≤ were set here for values at or beyond the usual limits of such assays
Common to all, as to details: source organism: Rickettsia bellii OSU 85-389

In general, Kd refers to the free concentration of one partner at which half of the binding sites on the other are occupied at equilibrium, for simple one-to-one binding. Low readings indicate a tighter complex, high ones a looser complex. In the case of EDFEIFYNL, the dissociation constant (Kd) with HLA-B*46:01 is ≥ 20 µM; with HLA-A*02:16, ≥ 20 µM; with HLA-A*68:02, 0.144 µM; with HLA-B*51:01, ≥ 20 µM; in the test with HLA-B*18:01 it was ≥ 20 µM; with HLA-A*02:12, ≥ 20 µM. The dissociation constant Kd in the test with HLA-A*02:19, in the test with HLA-B*27:03 and with HLA-A*24:03 was ≥ 20 µM throughout.

These data come from the Immune Epitope Database (IEDB).
